Laboratory results from the domain aggregation screens of Martell et al. (2025).

Assay: soluble fraction after stress (log2 fold change); higher = more stays soluble; pooled small domains, quantitative proteomics
Details: stress: 50 degC
Summary of the method: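 Quantitative proteomics served as the high-throughput read-out for pooled custom libraries of small protein domains. Each was stressed at 50°C. Aggregation propensity is expressed as the base-two log fold change in soluble protein after stress. A higher value means a larger share of the protein remains in solution.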

Sequence	soluble fraction (log2)
HMSQLTVGTVVTGNASLQTQGLKLPSFASGSRPASPNIGQMIWNSSDAKAQIWNGSEWDDVG	-0.198
HMSQTDTDAKDARQKILALLSDGEWHQKTELLKIDAPKEAVSNAIRYLVLEELISIDHAKVRA	-0.489
HMGTIEQAFKGKAPGSAHLYDRARAVLAGGVTHDTRIHAPFPIMVQRALGARKWDVDGNEYIDY	0.0863
HMEDELVMERFDINELVKSVVNANELRATQKNLSITYDILDTPLYVWADEYKVEEVVTNYLS	-0.143
HMVADEGELLAIAREVVAANPKVFEDWKAGKQSAAQWFVGQIMKRTRGRANPQLALKLVTQALEEHAR	0.0775
HMSQDEVVADMKADLGPDADNIIRSNIQWADGLVRKGILTESEREELDVMGGTPEAQRILVKLRTMQG	0.0777
HMSDPASLQRRLMSDPELTARILDSPFTRSLLDDPNLLRQMVNANPQLRRAMDANPQLRHAL	-0.21
HMEIEIPEELQNKFAEIPELKTAFESLTPGRQRAYVLYFSQPKQSKTREARIEKYIPHILDGKGMN	0.111
HMDKEPTHLHTFRLIKEGKSSEEIAEIRNITLGTVNTHLAKLIAVGELTIEQVISKHRLDYVMEAIKNSK	-0.16
HMIPDLPAVGVNVHKERRRQQLSLDALAAGSGVSKAMLSQIESGKVNPTVATMWKIAHALGVDFELLLKGE	-0.154
HMGPAYEKIVANGQTFYRYNVKKGEGLMAVSRTFNVSVNDILKYNPSAASGLKDGQELLIPVIDDA	0.164
HMTSAHEKAFDLFDGGKLSEKALLIAVGAERSGFELAGDLRLRTLTAFEDGRLSEDAMIKLL	-0.385
HMNTDVEKQKVFTALFDDYFRRNSMTSLEKQLFLTALKTNFQNAQKTVAKDHPYYATYSLIISAIENYR	0.145
HMREPIPVPSRPIRAGDLVEIPGTNRPAEVTAVKGDRLVLKAGVLSMTVKNDEVRLIEDDERAAM	0.0715
HMPVFSAEQVAKAEADVQKVANKVQEAGADVEKLTTIHNWLLAREKYMPPDLFSTANQIIATAFQKAG	0.112
HMKLHQDLQIKVIDAANNKVEFIDTATGTSLATRTLDVNGVSKARGFEATLYGVVEDNDVFHIA	0.158
HMHGESISVPDLRGQKMERMPAFLADKHLQFKVIDSLFDLEKNPGTVLEQDPAPNSKVKEGRTIYLTVNAQ	-0.022
HMAPAPYLVKVTANKLNIRSGPGTNYKIQGAITDKGTYTIVDTQGRWGKLKSGAGWIYLNYTKK	-1.9
HMAELTTVQAADILHVSRPFLIKLLDEGQIPYHRVGKHRRIRMEDVMNYKRAIDQQREAVLDQLVAEA	-0.0408
HMAKKDVESTLGGRLRVARVRAGLTQVELARMLGMNSVSLSNVEGGRRGLSMKQLVRVAKILEVPVAYLLG	-1.65
HMDEQKNREIALIENIQREDLNPYEKALGIRNLMDKYGLTQEEVSKRIGKSRSAVSNTVRILNLAPDVL	0.0391
HMSPRAIYVTTSDLNMRMQPSPNAYKRGVAPRGTELLVVEWGDDWSKVIFEGDTAYAASRYLSYVKDEP	-0.487
HMNNPLLDKVYQLMKQNNITEEEIVRAVAMKGYFPDDMKLGDYPDDFIDGVLIGAWDQIKQFIINNISPFK	0.0631
HMTFSDKIRELRKQKGVSQAVVAEYLGITKQAYSLYETGKREPDFDSLLKLAEYFGTDTDSLLY	-0.309
HMANVQLAKNLKTLRKKYNYTQQDVSTFLNITRQAYSHYEQALREPDLNTLVHLSRFYQVTLDELI	-3.8
HMAHYPGKVNNELVEFIRSEQRKTPHMTLTGLNRKLQRTYDLTLSESTVRKLVEAETILPLAREPD	-0.0739

Sequence	soluble fraction (log2)
HMNNVDIMGRMVYDDQHREVINFGKYKGVLVTEVLKKDPGYFSWIQQGDFPSDMKRIMMAIKLRM	-2.3
HMKNMSLGERIKEQRKSSGLSQEKVAEFVGVSRQAVTKWETGQSAPSTENLFKLAEIFGTTVDILLA	0.000199
HMVDPAFLAWQQKPENTWFGTDRRKTALAIAIAEEIRNDPANSNLVGAAFYARVAEETEETLN	-0.628
HMPAVTEQTKTNLRRAFWQLYEQKPIQKITVKQITDLAGYNRGTFYLYFKDVYDLLDDIENK	-0.704
HMNSKIIVESIIKSKNGIAKVADLVEGGVSRQSIKKMYADGYIKRISRGYYTLTSEPVSSDEQVISS	-0.333
HMKPLIIPLELMQRLSSDKQLEAGFNRFSKSKQHEFAAYIAAAKRVETKVKRLEKIIPLILSGEGLNDR	-1.36
HMKLTNNDFIRLKTFMYNNYGINLENKKTLIETRLAIVVKRLGFNDFKSYIDNLMRDKTGEQASIIVGKLT	-0.58
HMNKIGTIVSINGPIVKTAGDVGFVMHEMVYVGKEKLVGEVIGLTTDFTIVEVYEETSGIKPGETIEGT	-1.5
HMPYSKIALQISHLLKSHGVPLSNKQIYEKLINDFQLSINYSNLTNNILPRMNSDSSINVEKVTRGYWQY	-0.634
HMDDKLKKLEEVFEMQEGTLTPDMRLDELEEWDSMTRLSLIVMMEDDYGKKVKRSEVMNYTTVQDIVDSME	-0.5
HMSHPNAPLTPEGRRRLAVLIVEDGWTIRRAAERFQVSPATASKWARRYRAGESLTDRSSRP	-1.58
HMATTMSADWRPSEDAVGILVNAEINARFIEDAIPEFVLYWRERGAVHGAWNSKFIEHIRRQWAKFSAS	-2.2
HMFERFIFTDEVYIRLKKSGLPQTTLRPLLEIHGKSFDHNEINIILSGLIPNQDFERYAQIIKSHSRF	-3.82
HMEYYDDEELDRFRGVEADAYDEDAVNEFRDVLYTLQEIEVAGWLRSLQLRAINLPDELKDEAFLI	-1.64
HMKGKIYFFEEGVDRVGGVERVISTLANEFSKKYKVNVISFYKTRKETFFKYNSDIDITYLSK	0.14
HMKMDGESQRLLSLIKEQGGSLPIGDKSSPEAIYRLTQMSKKTFKMALGSLYKAKQVVLSPTEVRL	-0.69
HMRKEPSYASDIITRLKEADLIVVEGTLYPLLTRLKKDGLLSYEWRESTQGPPRKYYALTLDGET	-0.455
HMGTDIGADKAAQTALADAGLSSSQVTGLRTKQDWDDGQLRYEVEFRAGGVEYDYELAADGTILKADRDT	0.247
HMATRLPFGFAKRFGVLVEGKDDQITVYHKDGLQTAVILEIQRYLARPFRFEAVTPEEFERRLGLAYQS	-0.808
HMQRDDMQIDRLIQIVFLLLSRNNLTAKQLAEELGVSTRTIYRDINILSVAGIPITSQKGYGGGLSLLQG	-0.62
HMYTPDYLSDLMVRMAHHSTAIEGNTLTQGETKSVLVDGYIPRAMDMRELNEVLNYKAFMTFLVE	-0.0969
HMKPSNLTSDERTQLLAQLKTAMGSDQYNQLRRQVGEEKLLEYVLDNVPGIQEEILGNRAVQENIDLH	0.23
HMGLNEGLNEGQQKVIQHIQENEGIKVKEISLKLNMPIDTVDRHIRVLKNLNLIERRGSRKTGGYFISN	-0.266
HMSLRGEKTYDEAHQKLIKSAVELFKNPLVSPEKITVSQIAKHAGVSVATAYNHFPENKLDIYGSIF	-0.071
HMQLLDIGSAVRIIREPYFGRLGTVVELPPELMEIESGTHARVLKAKLDDGTVAVVPRANVEIIVE	-0.171
HMSDTSELESIIAQIIEDNPKSIEDIGAGNQKAYGFLTGQVMKATKGQANPQVANKIIRELVARKLE	0.575

Sequence	soluble fraction (log2)
HMPLSDAEKAAAIATQAKERALKLSPEMISYLLRHASRDMRTLSMLVVALDQYTLEQKRPVTLPLLRELLS	-0.098
HMSRQDYLQTIYRLSVGKGYTTNKKIADFLSVSKPSVTEMIGKLQGEGLVAMDGAHIFLTEDGAEQ	-0.567
HMTRNEFLTALRGRLSALPKEEQDAALKYYEEYFDEAESEEDAARQLGSPDSIAEKILADYA	-0.17
HMETKQYIVEAQDEGTRLDVYLTKELGQSRSYVQSLVKEGHVQVNGKTGKSNLKLSSSSEILVTIPEVQ	-0.0648
HMSLPTSDWKRALSLFDEALSLPPDARDAWLAHTIAREPAVSPLLQKLLGAHRRVETNDILATLPR	-0.286
HMKYSELLLEIILQSKEHPTAEQIFIEAKKRNPKIVQATVYNNLKNLLAQGRVIRISNPGQPDRYDNT	-0.401
HMQKTIDWSQVDKEQYLSAMERSPVNDLEIKAILAKALTSDINNRELFMKGLDHSYYFEGYQLFKSE	-0.281
HMENFYGYEIINPEAKKFFITMGVNRYALEQWIKNKSEYGLIIVKSLYPFDPRLKLFLEKNRERIQNLIF	-0.566
HMVVQTELVRISITSLSGEDIRRLVQIKVVGATIEPFEGGGFLITGTAEQIAKAKDFLNSMSTEF	-0.855
HMLHSEDATVVRQAIPLLERHVDAATVAVARRNLAQLEQFGRYPRRNQALGRISNPAENAYLRAER	0.0897
HMQHQSGLKSGEFEAISQQLQALLKENPLSLQEIKDKMQVTENHLIKVVSYLVSEEIIRQENGYLK	-0.729
HMHVYQSLVTDRVVPGGGYRTTEAILSTEAWRNTLLEQAKRELIGVRNKYASLTELAKVWTAIDTVT	-0.586
HMNIEANLEDILRRAMPSAAKLILENSLNINKIIGTGKEGRITKGDVLLYLKDKNLILENILN	-0.173
HMKSARQIAILEIIAEKSIETQEDLADALRLRGFQVTQATVSRDIKELRLVKALAPDGTYRYATAEK	-0.0157
HMTDLNQIGERIKGLRDALGYSPEKMASILEQKVDDYLAYEEGTKDISLSVLQRIEKEFDIDLSTLLFGT	-0.148
HMSMRIDTNTLNYYVQNAQISLSVLRTKINNLDQFLSGEKQPTFNQLSEIAKKINVPTGLLLLNKS	-1.45
HMESEAKLGVAFNGKTRFDMTFPADADNKTIEEAVLADERAQKYLEGFQVAKVIIVPKRMVNIVLK	0.24
HMGIRQGKVTSTFVNVRSGASTANAKVGELHKGDVVSLIEKVANFWRIGPGQFVSADYIQVLAS	-0.508
HMKLASIGDNIHTLRKNKGLTQSQLAGKLGVNVDTISNYEKGVSTPDFDIVEKLVNIFNVDAHSLLFK	0.127
HMTGIQDVPALETRRVGNTFFFDRATDVQVYDLQGRLLQQARKVTSVSIGHLQQGVYVLTDGRASVKVQ	-1.23
HMIPDAIDPDGRFKWRAGEAVVGFGRHAGEPLKKIAIENPEFLRWILKADFSTDVKKIASDALKGYFPEK	-0.23
HMINYYELLKLDMNAAHEEINDAIKLESEKNTIPEDQIRTMKSIFFNTEFKKEYDQRLMNFLLT	-0.319
HMHDHKTRLQELAAQRFGSAPSYLLTADGPAHDRRFHASVEVGGRSFGPGTGKSKKRAEQVAAHIAWDALS	0.394
HMVDTSDLPAIVEKVFADNPEQVNDILNGKDRVKGFLVGQIMKATRGQAPPDEVNKLIDATLEKMKAA	0.0819
